In assay [1] the target is T1, human IL-4 (human, UniProt P05112 25-153, biotinylated in the receptor binding assay and on the Biacore chip).
T1 sequence (looked up): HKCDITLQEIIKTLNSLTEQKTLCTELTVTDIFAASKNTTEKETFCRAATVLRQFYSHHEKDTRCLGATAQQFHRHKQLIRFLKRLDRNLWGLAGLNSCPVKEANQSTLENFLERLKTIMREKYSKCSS
The assay is described as follows: cell-based or functional assay.

The target of a further assay is T2, rhesus IL-4 (rhesus, UniProt P51492 25-153).
T2 sequence (looked up): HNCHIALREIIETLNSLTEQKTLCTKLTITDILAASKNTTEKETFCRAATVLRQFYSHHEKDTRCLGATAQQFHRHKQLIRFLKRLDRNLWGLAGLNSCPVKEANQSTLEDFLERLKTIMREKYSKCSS
Kind of assay: inferred from TF-1 proliferation with rhesus IL-4. Here is the method: The mixture was incubated for 72 hours at 37° C. 5% CO₂. […] 96® reagent (colorometric reagent for determining viability, Promega, Madison, USA) was then added and the number of cells per well was quantified by measuring the absorbance at 490 nm.
A dose-response of the dAb will determine the ND50 in this set up.

Assay [2] has as its target T1, human IL-4. Kind of assay: DOM9 RBA (IL-4 RBA).
Assay [3] has as its target T1, human IL-4. Kind of assay: DOM9 RBA (IL-4 RBA). The source says: (§1) The wells were washed three times with 0.1% (v/v) Tween 20 in PBS, followed by three washes with PBS, before blocking with 2% (w/v) BSA in PBS. […] The reaction was stopped by the addition of HCl and the absorbance read at 450 nm.
This is another data set of the same source.

The target in assay [4] is T3, human IL-13 (human, UniProt P35225 35-146, biotinylated on the Biacore chip).
T3 construct: also called hIL-13; recombinant human IL-13
The assay is described as follows: IL-13 receptor I RBA: FMAT beads, IL-13R alpha1/Fc. Here is the method:
(§2) The plate was incubated for seven hours before being read in the 8200 cellular detection system (Applied Biosystems).
This molecule was PEGylated via the C terminus using PEG-Maleimide with a branched 40K PEG2-MAL moiety.

Assay [5] has as its target T3, human IL-13. The assay is described as follows: IL-13 receptor binding assay (receptor chain not stated).
For assay [6], the target named is T1, human IL-4. Kind of assay: IL-4 RBA: ELISA, IL-4R/Fc coated, biotinylated IL-4.
Description: as §1
On the technique in general: An ELISA detects its analyte on a solid surface through an enzyme-linked reagent.

The target of assay [7] is T3, human IL-13. Kind of assay: cell-based or functional assay.
Assay [8] has as its target T3, human IL-13. Kind of assay: IL-13 sandwich ELISA, competition with coating antibody. Here is the method: (§3) A MAXISORP™ plate (high protein binding ELISA plate, Nunc, Denmark) was coated overnight with 2.5 μg/ml coating antibody (Module Set, Bender MedSystems, Vienna, Austria), then washed once with 0.05% (v/v) Tween 20 in PBS before blocking with 0.5% (w/v) BSA 0.05% (v/v) Tween 20 in PBS. […] The plate was then incubated with TMB substrate (KPL, Gaithersburg, USA), and the reaction was stopped by the addition of HCl and the absorbance read at 450 nm.

Assay [9] has as its target T3, human IL-13. Kind of assay: IL-13 receptor I RBA: FMAT beads, IL-13R alpha1/Fc. Here is the method:
as §2
The source holds these as a separate data set.

The target in assay [10] is T3, human IL-13. Kind of assay: assay not named ('Potency IC50').
The target of assay [11] is T3, human IL-13. Kind of assay: cell-based or functional assay. The source holds these as a separate data set.
For assay [12], the target named is T3, human IL-13. The assay is described as follows: IL-13 receptor binding assay by the legend; IL-13 sandwich ELISA by paragraph 465.
Assay [13] has as its target T3, human IL-13. The assay is described as follows: DOM10 RBA (IL-13 sandwich ELISA per paragraph 473). Here is the method:
as §3
These in-line fusions were constructed and expressed as described above. […] After this incubation, the level of cell proliferation was determined.

The target of assay [14] is T1, human IL-4. Kind of assay: IL-4 RBA: ELISA, IL-4R/Fc coated, biotinylated IL-4.
Description: as §1
The source holds these as a separate data set.

Values joined by “and” are separate entries in the source; they are usually repeats but may differ in a detail not shown here. Equal values may be shown once.

In general, IC50 refers to the point on the concentration scale where inhibition reaches its midpoint. Read a high IC50 as a need for much substance.

T3 sequence (P35225 35-146 limits assumed): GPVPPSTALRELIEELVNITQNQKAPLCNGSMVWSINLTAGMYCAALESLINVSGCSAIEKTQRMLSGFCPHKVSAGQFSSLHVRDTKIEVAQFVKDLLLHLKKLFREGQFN

B1: DOM9-155-11 (other)
VL: DIQMTQSPSSLSASVGDRVTITCRASRNIGDWLHWYQQKPGKAPKLLIAWASTLDSGVPSRFSGSGSGTDFTLTISSLQPEDFATYYCLQEGWGPPTFGQGTKVEIKR
Consider B1, for which the “average inhibition of HDM induced PBMC proliferation, 100 nM dAb, responding donors” value in the assay with human IL-4 [1] came out at 34%.

B2: DOM9-155-78 (other)
VL: DIQMTQSPSSLSASVGDRVTITCRASRHIGDWLHWYQQKPGKAPKLLIAWASTLDSGVPSRFSGSGSGTDFTLTISSLQPEDFATYYCLQEGWGPPTFGQGTKVEIKR
notes: Vk dAb
As to B2, the binding result with rhesus IL-4 is given as “binds”. Moreover, the IC50 was 0.456 nM with human IL-4 [2] and 0.41 nM with human IL-4 [3].

B3: DOM9-155-5 (other)
VL: DIQMTQSPSSLSASVGDRVTITCRASLDIGDWLHWYQQKPGKAPKLLIAWASTLDSGVPSRFSGSGSGTDFTLTISSLQPEDFATYYCLQEGWGPPTFGQGTKVEIKR
notes: Vk dAb
With B3, in the assay with rhesus IL-4, the binding result is reported as “binds”.

B4: DOM10-53-343 40K PEG2 MAL (other)
VH: EVQLLESGGGLVQPGGSLRLSCAASGFIFAWYDMGWARQAPGKGLEWVSSIDWHGEVTYYADSVKGRFTISRDNSKNTLYLQMNSLRAEDTAVYYCATAEDEPGYDYWGQGTLVTVSSC
modifications: branched 40K PEG2-MAL on the C-terminal cysteine
Take B4: the IC50 in the assay with human IL-13 [4] came to 0.033 nM.

B5: PEGylated DOM9-112 (AST) DOM10-53-343 (bispecific antibody)
chain: EVQLLESGGGLVQPGGSLRLSCAASGFTFRNYGMAWVRQAPGKGLEWVSWIDASGTETYYADSVKGRFTISRDNSKNTLYLQMNSLRAEDTAVYYCAKSLGRFDYWGQGTLVTVSSASTEVQLLESGGGLVQPGGSLRLSCAASGFIFAWYDMGWARQAPGKGLEWVSSIDWHGEVTYYADSVKGRFTISRDNSKNTLYLQMNSLRAEDTAVYYCATAEDEPGYDYWGQGTLVTVSSC
modifications: 40K PEG2-MAL on the C-terminal cysteine
notes: in-line fusion of two VH dAbs made in Pichia pastoris; also called dual specific ligand
As to B5, the results for the IC50 with human IL-13 [5] and with human IL-4 [6] were 0.31 nM and 13 nM, respectively.

B6: DOM10-53-234 (other)
VH: GVQLLESGGGLVQPGGSLRLSCAASGFIFAWYDMGWARQAPGKGLEWVSSIDWHGNVTYYADSVKGRFTISRDNSKNTLYLQMNSLRAEDTAVYYCATAEDEPGYDYWGQGTLVTVSS
notes: VH dAb
As for B6, in the assay with human IL-13 [7], the “ND50, IL-13 induced TF-1 cell proliferation” value was found to be 43 nM. Also, the IC50 with human IL-13 [8] is 0.087 nM and 0.081 nM and 0.04 nM.

B7: DOM10-53 (other)
VH: GVQLLESGGGLVQPGGSLRLSCAASGFTFAWYDMGWARQAPGKGLEWVSSIDDSGTQTYYADSVKGRFTISRDNSKNTLYLQMNSLRAEDTAVYYCATAERDDTFDYWGQGTLVTVSS
notes: VH dAb
Take B7: the IC50 was found to be 150 nM in the assay with human IL-13 [9] and 100 nM in the assay with human IL-13 [10].

B8: DOM10-53-338 (other)
VH: EVQLLESGGGLVQPGGSLRLSCAASGFIFAWYDMGWARQAPGKGLEWVSSIDWRGNVTYYADSVKGRFTISRDNSKNTLYLQMNSLRAEDTAVYYCATAEDEPGYDYWGQGTLVTVSS
notes: VH dAb
In the case of B8, the “IC50, IL-13 induced TF-1 proliferation” value in the assay with human IL-13 [11] is 0.423 nM. Moreover, in the assay with human IL-13 [4], the IC50 came out at 0.387 nM.

B9: DOM10-53-338 40K PEG2 NHS (other)
VH: EVQLLESGGGLVQPGGSLRLSCAASGFIFAWYDMGWARQAPGKGLEWVSSIDWRGNVTYYADSVKGRFTISRDNSKNTLYLQMNSLRAEDTAVYYCATAEDEPGYDYWGQGTLVTVSS
modifications: 40K PEG2-NHS on surface lysine residues (positions not stated)
notes: also called 40K PEGylated DOM10-53-338 dAb
As for B9, the “IC50, IL-13 induced TF-1 proliferation” value with human IL-13 [11] amounted to 0.231 nM. Besides, the IC50 with human IL-13 [4] is 0.226 nM.

B10: DOM10-53-338 30K PEG ALD (other)
VH: EVQLLESGGGLVQPGGSLRLSCAASGFIFAWYDMGWARQAPGKGLEWVSSIDWRGNVTYYADSVKGRFTISRDNSKNTLYLQMNSLRAEDTAVYYCATAEDEPGYDYWGQGTLVTVSS
modifications: 30K PEG-ALD on the N-terminus (alpha-amino group)
notes: also called 30K PEGylated DOM10-53-338 dAb
Regarding B10, the “IC50, IL-13 induced TF-1 proliferation” value with human IL-13 [11] worked out at 0.181 nM. This molecule displayed an IC50 in the assay with human IL-13 [4] of 0.169 nM.

B11: DOM10-53-344 (other)
VH: GVQLLESGGGLVQPGGSLRLSCAASGFIFAWYDMGWVRQAPGKGLEWVSSIDWHGEVTYYADSVKGRFTISRDNSKNTLYLQMNSLRAEDTAVYYCATAEDEPGYDYWGQGTLVTVSS
notes: VH dAb
Take B11: in the assay with human IL-13 [7], the “ND50, IL-13 induced TF-1 cell proliferation” value turned out to be 100 nM. Moreover, the values for the IC50 with human IL-13 [12] and in the assay with human IL-13 [10] were 0.04 nM and 0.1 nM, respectively.

B12: DOM10-53-343 (other)
VH: EVQLLESGGGLVQPGGSLRLSCAASGFIFAWYDMGWARQAPGKGLEWVSSIDWHGEVTYYADSVKGRFTISRDNSKNTLYLQMNSLRAEDTAVYYCATAEDEPGYDYWGQGTLVTVSS
notes: VH dAb
Consider B12, for which the IC50 in the assay with human IL-13 [4] was determined as 0.136 nM; in the assay with human IL-13 [5] it was 0.23 nM.

B13: DOM9-112-210-DOM10-275-1 (bispecific antibody)
chain: EVQLLESGGGLVQPGGSLRLSCAASGFTFRNFGMGWVRQAPGKGLEWVSWIISSGTETYYADSVKGRFTISRDNSKNTLYLQMNSLRAEDTAVYYCAKSLGRFDYWGQGTLVTVSSASTKGPSEVQLLESGGGLVQPGGSLRLSCAASGFTFDREEMDWVRQAPGKGLEWVSTISPSGRKTYYADSVKGRFTISRDNSKNTLYLQMNSLRAEDTAVYYCAKAYTGFDYWGQGTLVTVSS
As to B13, half-maximal inhibition with human IL-13 [13] (IC50) was put at 44.9 nM. This counts as double-digit nanomolar.

B14: DOM10-275-1-DOM9-155-78 (bispecific antibody)
chain: EVQLLESGGGLVQPGGSLRLSCAASGFTFDREEMDWVRQAPGKGLEWVSTISPSGRKTYYADSVKGRFTISRDNSKNTLYLQMNSLRAEDTAVYYCAKAYTGFDYWGQGTLVTVSSASTKGPSDIQMTQSPSSLSASVGDRVTITCRASRHIGDWLHWYQQKPGKAPKLLIAWASTLDSGVPSRFSGSGSGTDFTLTISSLQPEDFATYYCLQEGWGPPTFGQGTKVEIKR
Molecule B14 yielded an IC50 with human IL-13 [13] of 39.2 nM. This IC50 and that of the molecule before are within 1.5-fold of each other.

B15: DOM10-416 (other)
VH: EVQLLESGGGLVQPGGSLRLSCAASGFTFKGSEMDWVRQAPGKGLEWVSTISADGRETYYADSVKGRFTISRDNSKNTLYLQMNSLRAEDTAVYYCAKSYTSFDYWGQGTLVTVSS
notes: VH dAb
B15 gave an IC50 with human IL-13 [9] of 6000 nM.

B16: DOM9-112-22 (other)
VH: EVQLLESWGGLVQPGGSLRLSCAASGFTFRNYGMAWVRQAPGKGLEWISWIDASGTETYYADPVKGRFTISRDNSKNTLYLQMNSLRAEDTAVYYCAKSLGRFDYWGQGTLVTVSS
As to B16, the “average inhibition of HDM induced PBMC proliferation, 100 nM dAb, responding donors” value with human IL-4 [1] came out at 23%.

B17: DOM9-112-210 (other)
VH: EVQLLESGGGLVQPGGSLRLSCAASGFTFRNFGMGWVRQAPGKGLEWVSWIISSGTETYYADSVKGRFTISRDNSKNTLYLQMNSLRAEDTAVYYCAKSLGRFDYWGQGTLVTVSS
notes: VH dAb
For B17, the IC50 with human IL-4 [14] was found to be 0.144 nM; with human IL-4 [2] it was 0.391 nM.

B18: DOM9-112 (ASTKGPS) DOM10-53-344 (bispecific antibody)
chain: EVQLLESGGGLVQPGGSLRLSCAASGFTFRNYGMAWVRQAPGKGLEWVSWIDASGTETYYADSVKGRFTISRDNSKNTLYLQMNSLRAEDTAVYYCAKSLGRFDYWGQGTLVTVSSASTKGPSGVQLLESGGGLVQPGGSLRLSCAASGFIFAWYDMGWVRQAPGKGLEWVSSIDWHGEVTYYADSVKGRFTISRDNSKNTLYLQMNSLRAEDTAVYYCATAEDEPGYDYWGQGTLVTVSS
notes: in-line fusion of two VH dAbs; also called dual specific ligand
With B18, the IC50 in the assay with human IL-13 [12] was 0.12 nM; in the assay with human IL-4 [6] it was about 1 nM.

For the origin of these results see patent US20090060916A1 (published 2009).
